Test results taken from publication doi:10.1101/2024.12.10.627789.

Target: CAM1
Assay: ITC

Substance: CBD peptide of eEF2K
- Kd: 255 nM
